B1: Lysozyme C, P61626 (parent)
chain: MKALIVLGLVLLSVTVQGKVFERCELARTLKRLGMDGYRGISLANWMCLAKWESGYNTRATNYNAGDRSTDYGIFQINSRYWCNDGKTPGAVNACHLSCSALLQDNIADAVACAKRVVRDPQGIRAWVAWRNRCQNRDVRQYVQGCGV

The variants in this data set derive from B1. The following applies: Homo sapiens, pH 2.7, Thermal, DSC, glycine 0.05 M, reversible: yes, structure 1LZ1, whole UniProt chain shown.

By Tm is commonly meant the temperature at which the thermal transition is half complete. As to V128A, the Tm was 66.4 °C; the “change of melting temperature, mutant - wild type (higher = more stable)” value (“change of melting temperature, mutant” below) worked out at 1.5 °C; the “heat capacity change of unfolding” value came to 1.24 kcal/mol/K; the “unfolding enthalpy (calorimetric)” value is 116 kcal/mol. Moreover, the “unfolding enthalpy (van 't Hoff)” value turned out to be 122 kcal/mol. Under “64.9 °C”, the “ddG of mutation (higher = less stable)” value is -0.53 kcal/mol and the “heat capacity change of unfolding” value turned out to be 1.24 kcal/mol/K.

Consider V117A, for which the Tm came out at 61.9 °C; the “change of melting temperature, mutant” value is -3 °C; the “heat capacity change of unfolding” value amounted to 1.58 kcal/mol/K; the “unfolding enthalpy (calorimetric)” value is 111 kcal/mol. Moreover, the “unfolding enthalpy (van 't Hoff)” value is 117 kcal/mol. Also, under “64.9 °C”, the “ddG of mutation (higher = less stable)” value stood at 0.98 kcal/mol and the “heat capacity change of unfolding” value amounted to 1.58 kcal/mol/K.

Turning to V148A, the Tm was determined as 62.3 °C; the “change of melting temperature, mutant” value is -2.6 °C; the “heat capacity change of unfolding” value worked out at 1.51 kcal/mol/K; the “unfolding enthalpy (calorimetric)” value stood at 111 kcal/mol. The “unfolding enthalpy (van 't Hoff)” value was determined as 119 kcal/mol. Also, where the note is “64.9 °C”, the “ddG of mutation (higher = less stable)” value is 0.84 kcal/mol and the “heat capacity change of unfolding” value was found to be 1.51 kcal/mol/K.

Take V20A: the Tm came to 60.3 °C; the “change of melting temperature, mutant” value is -4.6 °C; the “heat capacity change of unfolding” value stood at 1.56 kcal/mol/K; the “unfolding enthalpy (calorimetric)” value turned out to be 112 kcal/mol. In addition, the “unfolding enthalpy (van 't Hoff)” value was found to be 114 kcal/mol. Where the note is “64.9 °C”, the “ddG of mutation (higher = less stable)” value was determined as 1.51 kcal/mol and the “heat capacity change of unfolding” value worked out at 1.56 kcal/mol/K.

V118A: the melting temperature (Tm) was determined as 64.1 °C; the “change of melting temperature, mutant” value was -0.8 °C; the “heat capacity change of unfolding” value was found to be 1 kcal/mol/K; the “unfolding enthalpy (calorimetric)” value amounted to 110 kcal/mol. For the same variant, the “unfolding enthalpy (van 't Hoff)” value worked out at 120 kcal/mol. Moreover, for the setting “64.9 °C”, the “ddG of mutation (higher = less stable)” value was determined as 0.26 kcal/mol and the “heat capacity change of unfolding” value was 1 kcal/mol/K.

As to V143A, the Tm came to 60.9 °C; the “change of melting temperature, mutant” value is -4 °C; the “heat capacity change of unfolding” value is 1.29 kcal/mol/K; the “unfolding enthalpy (calorimetric)” value amounted to 113 kcal/mol. The “unfolding enthalpy (van 't Hoff)” value stood at 116 kcal/mol. Moreover, where the note is “64.9 °C”, the “ddG of mutation (higher = less stable)” value came to 1.32 kcal/mol and the “heat capacity change of unfolding” value was 1.29 kcal/mol/K.

Take V139A: the midpoint of thermal melting (Tm) was found to be 60.4 °C; the “change of melting temperature, mutant” value was -4.5 °C; the “heat capacity change of unfolding” value amounted to 1.53 kcal/mol/K; the “unfolding enthalpy (calorimetric)” value came to 110 kcal/mol. Further, the “unfolding enthalpy (van 't Hoff)” value amounted to 112 kcal/mol. In addition, under “64.9 °C”, the “ddG of mutation (higher = less stable)” value was determined as 1.44 kcal/mol and the “heat capacity change of unfolding” value amounted to 1.53 kcal/mol/K.

Consider V111A, for which the midpoint of thermal melting (Tm) was determined as 62.6 °C; the “change of melting temperature, mutant” value is -2.3 °C; the “heat capacity change of unfolding” value was 1.53 kcal/mol/K; the “unfolding enthalpy (calorimetric)” value is 112 kcal/mol. Further, the “unfolding enthalpy (van 't Hoff)” value was 120 kcal/mol.

Take V92A: the Tm came to 63.8 °C; the “change of melting temperature, mutant” value was -1.1 °C; the “heat capacity change of unfolding” value came to 1.48 kcal/mol/K; the “unfolding enthalpy (calorimetric)” value stood at 114 kcal/mol. Moreover, the “unfolding enthalpy (van 't Hoff)” value stood at 120 kcal/mol. In addition, for the setting “64.9 °C”, the “ddG of mutation (higher = less stable)” value was 0.36 kcal/mol and the “heat capacity change of unfolding” value amounted to 1.48 kcal/mol/K.

Values taken from FireProtDB (doi:10.1021/bi9621829).
